Two substances from patent publication US20040248807A1 can be followed below.

Usually Kd stands for the constant that tells how readily two partners part at equilibrium. Read a high Kd as lower affinity. Broadly, the Ki is a dissociation constant, usually derived from enzyme kinetics or from competition with a known ligand.

The target in experiment [1] is Human α-thrombin (human) (UniProt P00734). Kind of experiment: fluorescence polarization, 2 nM fluoresceinated peptide titrated with α-thrombin. A general note: Fluorescence polarisation rises when a labelled molecule tumbles more slowly, as on binding a larger partner.
In experiment [2] the target is Human γ-thrombin (human) (UniProt P00734). Kind of experiment: fluorescence polarization, fluoresceinated peptide titrated with γ-thrombin.
Experiment [3] deals with Human α-thrombin (human) (UniProt P00734). Kind of experiment: fluorescence polarization competition against 2 nM fluoresceinated γ′408-427 phosphorylated peptide, 2 µM α-thrombin.

Sequence of fluoresceinated γ′408-427 peptide, …-Y(PO3)-DSL-Y(PO3)-PEDDL (P02679 434-453): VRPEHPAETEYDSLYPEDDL

“fluoresceinated γ′408-427 peptide, …-Y(PO3)-DSL-Y(PO3)-PEDDL”: the Kd was determined as 0.43 µM in experiment [1] and 0.61 µM in experiment [2].
In experiment [3], “γ′408-427 peptide, doubly phosphorylated, unlabeled, …-Y(PO3)-DSL-Y(PO3)-PEDDL” had an inhibition constant (Ki) of 0.52 µM.
